What all share (assay): G' assay
The target of experiment [1] is T1, GST-Outer Membrane PDZ domain 1 (Homo sapiens (Human)), P57105.
T1 chain: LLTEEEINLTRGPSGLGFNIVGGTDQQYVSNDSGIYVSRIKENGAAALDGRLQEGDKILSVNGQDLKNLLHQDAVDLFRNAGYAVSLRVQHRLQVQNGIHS

Experiment [2] concerns the target T2, GST-LIM Mystique PDZ domain 1 (Homo sapiens (Human)), Q96JY6.
T2 chain: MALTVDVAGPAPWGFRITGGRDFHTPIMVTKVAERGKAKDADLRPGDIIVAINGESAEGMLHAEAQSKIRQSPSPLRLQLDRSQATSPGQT

The target of experiment [3] is T3, GST-FLJ 10324 PDZ domain 1 [GST: P08515].
T3 chain: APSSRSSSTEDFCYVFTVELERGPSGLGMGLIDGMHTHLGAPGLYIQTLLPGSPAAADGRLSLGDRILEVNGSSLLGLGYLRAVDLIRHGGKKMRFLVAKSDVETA

For experiment [4], the target named is GST-KIAA1634 PDZ domain 5 (Homo sapiens (Human)), Q5TCQ9.
Experiment [5] deals with T4, GST-LIM-RIL PDZ domain 1 (Homo sapiens (Human)), P50479.
T4 chain: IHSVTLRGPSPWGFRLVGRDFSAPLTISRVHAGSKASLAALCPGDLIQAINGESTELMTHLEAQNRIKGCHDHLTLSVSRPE

The target of experiment [6] is T5, GST-HEMBA 1003117 PDZ domain 1 (Homo sapiens (Human)), Q96JH8.
T5 chain: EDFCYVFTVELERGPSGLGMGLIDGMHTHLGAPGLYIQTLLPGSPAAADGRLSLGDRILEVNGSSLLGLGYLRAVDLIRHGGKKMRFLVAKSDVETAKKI

Experiment [7] concerns the target T6, GST-KIAA0807(S) PDZ domain 1 (Homo sapiens (Human)), Q6P0Q8.
T6 chain: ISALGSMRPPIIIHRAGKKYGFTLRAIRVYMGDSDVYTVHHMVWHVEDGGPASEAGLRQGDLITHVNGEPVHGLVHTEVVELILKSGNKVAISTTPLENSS

Experiment [8] has as its target T7, GST-MINT1 PDZ domain 2 (Mus musculus (Mouse)), B2RUJ5.
T7 chain: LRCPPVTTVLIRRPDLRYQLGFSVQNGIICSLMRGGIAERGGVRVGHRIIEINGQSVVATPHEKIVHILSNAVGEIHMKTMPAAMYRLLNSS

Experiment [9] concerns the target T8, GST-TIP1 PDZ domain 1 (Table 9 insert) (Homo sapiens (Human)), O14907.
T8 chain: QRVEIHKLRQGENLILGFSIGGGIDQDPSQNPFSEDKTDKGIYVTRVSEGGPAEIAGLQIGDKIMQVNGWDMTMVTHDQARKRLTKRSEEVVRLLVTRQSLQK

In experiment [10] the target is T9, GST-Syntrophin gamma 1 PDZ domain 1 (Homo sapiens (Human)), Q9NSN8.
T9 chain: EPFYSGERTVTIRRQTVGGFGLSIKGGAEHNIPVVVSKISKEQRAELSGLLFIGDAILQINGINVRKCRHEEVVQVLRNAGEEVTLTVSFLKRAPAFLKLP

Experiment [11] concerns the target T10, GST-MINT1 PDZ domains 1, 2, Q02410.
T10 chain: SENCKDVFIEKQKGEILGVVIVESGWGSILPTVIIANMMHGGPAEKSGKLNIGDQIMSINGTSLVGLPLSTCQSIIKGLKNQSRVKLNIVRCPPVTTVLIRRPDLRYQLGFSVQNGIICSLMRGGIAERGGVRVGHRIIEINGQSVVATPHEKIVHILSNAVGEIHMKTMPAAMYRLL

Experiment [12] addresses GST-Atrophin-1 Interacting Protein PDZ domain 5 (Rattus norvegicus (Rat)), O88382.
Experiment [13] deals with T11, GST-AIPC PDZ domain 1 (Homo sapiens (Human)), O15018.
T11 chain: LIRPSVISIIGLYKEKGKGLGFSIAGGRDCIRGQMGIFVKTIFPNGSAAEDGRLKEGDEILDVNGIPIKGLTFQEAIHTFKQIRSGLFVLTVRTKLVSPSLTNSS

In experiment [14] the target is GST-Atrophin-1 Interacting Protein PDZ domain 3 (Rattus norvegicus (Rat)), O88382.
Experiment [15] deals with GST-KIAA807 [GST: P08515].
Experiment [16] concerns the target T12, GST-KIAA1526 PDZ domain 1 (Homo sapiens (Human)), Q9P202.
T12 chain: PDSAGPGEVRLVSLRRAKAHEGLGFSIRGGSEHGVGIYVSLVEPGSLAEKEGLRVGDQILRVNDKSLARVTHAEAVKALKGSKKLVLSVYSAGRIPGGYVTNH

Experiment [17] concerns the target GST-BAI-1 Associated Protein PDZ domain 2 (Mus musculus (Mouse)), Q6RHR9.
For experiment [18], the target named is T13, GST-KIAA0382 PDZ domain 1 (Canis lupus familiaris (Dog) (Canis familiaris)), A0A8I3.
T13 chain: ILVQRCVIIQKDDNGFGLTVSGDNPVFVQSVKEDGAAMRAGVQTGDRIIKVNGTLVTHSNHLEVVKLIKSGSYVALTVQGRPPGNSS

In experiment [19] the target is T14, GST-FLJ00011 PDZ domain 1 (Homo sapiens (Human)), Q9H5P4.
T14 chain: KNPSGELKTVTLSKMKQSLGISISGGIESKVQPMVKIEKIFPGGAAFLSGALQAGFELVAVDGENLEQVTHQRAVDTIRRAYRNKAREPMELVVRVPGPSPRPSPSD

The target of experiment [20] is GST-BAI-1 Associated Protein PDZ domain 6 (Homo sapiens (Human)), Q96QZ7.
Experiment [21] has as its target T15, GST-INADL PDZ domain 3 (Homo sapiens (Human)), Q8NI35.
T15 chain: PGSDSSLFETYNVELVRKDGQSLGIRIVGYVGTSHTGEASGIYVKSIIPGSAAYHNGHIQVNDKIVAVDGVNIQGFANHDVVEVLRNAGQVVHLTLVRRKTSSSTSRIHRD

The source of these data is patent US20050282743A1, “Molecular interactions in cells” (Arbor Vita Corporation, priority 2001, published 2005).
Note: key of the grades not given here.

Chain of GST-BAI-1 Associated Protein PDZ domain 2 (Mus musculus (Mouse)), Q6RHR9 (Q6RHR9 455-558): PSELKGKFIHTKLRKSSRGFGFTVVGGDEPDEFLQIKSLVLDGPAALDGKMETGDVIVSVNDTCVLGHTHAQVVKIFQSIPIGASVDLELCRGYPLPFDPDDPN
Chain of GST-Atrophin-1 Interacting Protein PDZ domain 5 (Rattus norvegicus (Rat)), O88382 (O88382 1128-1225): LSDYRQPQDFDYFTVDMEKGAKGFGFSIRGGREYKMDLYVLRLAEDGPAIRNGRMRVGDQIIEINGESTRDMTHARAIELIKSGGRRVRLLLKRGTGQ
Chain of GST-KIAA1634 PDZ domain 5 (Homo sapiens (Human)), Q5TCQ9 (Q5TCQ9 other isoform, or with tags, fused parts or gaps): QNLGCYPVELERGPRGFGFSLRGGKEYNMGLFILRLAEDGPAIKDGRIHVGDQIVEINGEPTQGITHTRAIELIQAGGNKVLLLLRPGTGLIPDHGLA
Chain of GST-KIAA807 [GST: P08515] (P08515 whole entry, the tested form may be a part): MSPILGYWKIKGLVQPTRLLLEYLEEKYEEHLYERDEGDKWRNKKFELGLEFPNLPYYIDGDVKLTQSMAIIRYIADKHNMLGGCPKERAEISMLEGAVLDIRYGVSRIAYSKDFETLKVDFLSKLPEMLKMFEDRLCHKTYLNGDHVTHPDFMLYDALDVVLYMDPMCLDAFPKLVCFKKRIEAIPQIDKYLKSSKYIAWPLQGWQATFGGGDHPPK
Chain of GST-Atrophin-1 Interacting Protein PDZ domain 3 (Rattus norvegicus (Rat)), O88382 (O88382 774-865, tags or fused parts left off): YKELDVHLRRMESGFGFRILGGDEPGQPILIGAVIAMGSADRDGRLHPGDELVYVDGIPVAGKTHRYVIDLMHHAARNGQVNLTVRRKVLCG
Chain of GST-BAI-1 Associated Protein PDZ domain 6 (Homo sapiens (Human)), Q96QZ7 (Q96QZ7 1143-1233): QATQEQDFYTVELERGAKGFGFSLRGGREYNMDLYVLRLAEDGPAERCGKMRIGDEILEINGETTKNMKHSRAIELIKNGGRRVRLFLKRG

B1: catenin - delta 2 (peptide)
peptide: PYSELNYETSHYPASPDSWV
modifications: not checked
B1: the Classification is 5 A450 class in [1]; 5 A450 class in [2]; 3 A450 class in experiment [3]; 3 A450 class in experiment [4]; 2 A450 class in experiment [5]; 1 A450 class in [6]. The Classification in [7] was 3 A450 class; in experiment [8], 3 A450 class; in [9], 3 A450 class; in experiment [10] it was 1 A450 class; in experiment [11] it was 5 A450 class; in experiment [12], 5 A450 class. Also, the Classification in experiment [13] is 2 A450 class; in experiment [14], 1 A450 class; in experiment [15], 4 A450 class; in [16], 2 A450 class.

B2: LPAP (peptide)
peptide: AWDDSARAAGGQGLHVTAL
modifications: not checked
In the case of B2, the Classification in experiment [3] worked out at 1 A450 class; in experiment [6] it was 1 A450 class; in experiment [7] it was 5 A450 class; in experiment [8], 1 A450 class; in [9], 5 A450 class; in experiment [11], 1 A450 class. In addition, the Classification came to 2 A450 class in experiment [12]; 2 A450 class in [17]; 5 A450 class in experiment [18]; 5 A450 class in experiment [15]; 4 A450 class in [19]; 1 A450 class in experiment [16].

B3: a-actinin 2 (peptide)
peptide: VPGALDYAAFSSALYGESDL
modifications: not checked
Regarding B3, the Classification in experiment [1] is 1 A450 class; in experiment [2] it was 5 A450 class; in experiment [4], 5 A450 class; in experiment [5] it was 5 A450 class; in [7] it was 5 A450 class; in [8], 1 A450 class. Besides, the Classification came to 5 A450 class in [9]; 1 A450 class in experiment [10]; 1 A450 class in experiment [11]; 5 A450 class in experiment [20]; 5 A450 class in experiment [12]; 1 A450 class in experiment [17]. Further, the Classification came to 1 A450 class in experiment [21], 2 A450 class in experiment [13], 5 A450 class in experiment [15] and 1 A450 class in experiment [16].

B4: MINT-1 (peptide)
peptide: KTMPAAMYRLLTAQEQPVYI
modifications: not checked
With B4, the Classification in experiment [3] is 5 A450 class; in experiment [6], 3 A450 class; in [7], 5 A450 class; in [11], 5 A450 class; in [18], 1 A450 class; in experiment [13], 1 A450 class. Also, the Classification in [15] was determined as 4 A450 class.

B5: AdenoE4 typ9 (peptide)
peptide: VGTLLLERVIFPSVKIATLV
modifications: not checked
On to B5, for which the Classification in [1] was 5 A450 class; in [3], 3 A450 class; in [6], 3 A450 class; in experiment [7], 3 A450 class; in experiment [8], 2 A450 class; in experiment [11], 2 A450 class. The Classification in experiment [20] came to 1 A450 class; in experiment [17], 5 A450 class; in [18], 1 A450 class; in [14], 4 A450 class; in experiment [15], 4 A450 class; in experiment [19] it was 1 A450 class.

B6: KIA 1481 (peptide)
peptide: PIPAGGCTFSGIFPTLTSPL
modifications: not checked
As to B6, the Classification came to 1 A450 class in [4]; 5 A450 class in [7]; 3 A450 class in experiment [8]; 2 A450 class in [9]; 3 A450 class in [11]; 2 A450 class in experiment [20]. In addition, the Classification in [17] was 2 A450 class; in experiment [18], 5 A450 class; in experiment [15], 5 A450 class; in [19], 2 A450 class; in experiment [16], 2 A450 class.

B7: CSPG4 (chondroitin sulfae proteoglycan 4, melanoma-associated) (peptide)
peptide: ELLQFCRTPNPALKNGQYWV
modifications: not checked
Turning to B7, the Classification in experiment [1] turned out to be 1 A450 class; in experiment [2], 2 A450 class; in experiment [3] it was 5 A450 class; in experiment [4], 2 A450 class; in experiment [5], 2 A450 class; in [6], 5 A450 class. In addition, the Classification in [7] came to 1 A450 class; in experiment [8] it was 5 A450 class; in experiment [9] it was 1 A450 class; in experiment [11], 5 A450 class; in experiment [20] it was 4 A450 class; in experiment [12], 2 A450 class. Also, the Classification in experiment [17] was found to be 2 A450 class; in [21] it was 3 A450 class; in experiment [13], 5 A450 class; in experiment [14], 2 A450 class; in experiment [15] it was 1 A450 class.

B8: alpha-2A Adrenergic receptor (peptide)
peptide: HDFRRAFKKILARGDRKRIV
modifications: not checked
In the case of B8, the Classification in experiment [2] worked out at 1 A450 class; in experiment [3] it was 1 A450 class; in experiment [6], 1 A450 class; in experiment [7] it was 1 A450 class; in [10], 2 A450 class; in experiment [20] it was 3 A450 class. Besides, the Classification in experiment [12] was determined as 1 A450 class; in experiment [21], 2 A450 class; in experiment [13], 2 A450 class; in experiment [16], 4 A450 class.
